Data taken from paper PMC7360965.

Molecular target: F-actin (filamentous actin), actin purified from chicken breast (Gallus gallus) (chicken (Gallus gallus)), P68139
Assay: co-sedimentation
Conditions: remark: other sources report otherwise

B1: Human UTRN-ABD (utrophin actin-binding domain, amino acids 1-261), wild type, P46939 1-261 (domain or fragment)
chain: MAKYGEHEASPDNGQNEFSDIIKSRSDEHNDVQKKTFTKWINARFSKSGKPPINDMFTDLKDGRKLLDLLEGLTGTSLPKERGSTRVHALNNVNRVLQVLHQNNVELVNIGGTDIVDGNHKLTLGLLWSIILHWQVKDVMKDVMSDLQQTNSEKILLSWVRQTTRPYSQVNVLNFTTSWTDGLAFNAVLHRHKPDLFSWDKVVKMSPIERLEHAFSKAQTYLGIEKLLDPEDVAVQLPDKKSIIMYLTSLFEVLPQQVTID
Kd: 1800 nM
